According to patent US20240415889A1 (UNIVERSITY OF PITTSBURGH OF THE COMMONWEALTH SYSTEM OF …, published 2024):
Positions count from the first letter of the chain named. Names may count otherwise.

B1: Fab Clone #1 (1B2) (Fab, V domains shown)
VH: QVQLVESGGGLVKPGGSLRLSCAASGFTFSDYYMSWIRQAPGKGLEWVSYISSSGSTIYYADSVKGRFTISRDNAKNSLYLQMNSLRAEDTAVYYCARGFYMDAWGKGTTVTVSS
VL: DIQMTQSPSSLSASVGDRVTITCRASQSISSYLNWYQQKPGKAPKLLIYAASSLQSGVPSRFSGSGSGTDFTLTISSLQPEDFGVYYCQYYGISPPFTFGPGTKVDIKR
notes: Fab from a phage library, expressed in E. coli and purified on Ni-NTA; detected in ELISA with an anti-FLAG antibody
B2: IgG Clone #2 (1B2-6, IgG1-LALA-PG) (antibody, V domains shown)
VH: B1 VH with Q1E, D31G, V48L, S49A, S53N, S56R, A75S, K76N, N77S
VL: B1 VL
notes: Human IgG1 format with L234A, L235A and P329G; also called Clone #2 IgG (anti-NKG2A)
B3: IgG Clone #1 (1B2, IgG1-LALA-PG) (antibody, V domains shown)
VH: B1 VH
VL: B1 VL
notes: Human IgG1 format with L234A, L235A and P329G (LALA-PG / AAG) in the Fc; Light chain detected with an anti-human kappa antibody; also called Clone #1 IgG; 1B2 (IgG Clone #1)

Key:
[1] = target: T1, single chain CD94/NKG2A-Fc (CD94/NKG2A-IgG1 fusion polypeptide) (human); assay: indirect ELISA, coated CD94/NKG2A-Fc
T1 construct: Biotinylated in the panning and BLItz experiments; also called CD94/NKG2A polypeptide; recombinant CD94/NKG2A polypeptide; not shown: human IgG1 Fc
T1 sequence (chain, as listed by the source): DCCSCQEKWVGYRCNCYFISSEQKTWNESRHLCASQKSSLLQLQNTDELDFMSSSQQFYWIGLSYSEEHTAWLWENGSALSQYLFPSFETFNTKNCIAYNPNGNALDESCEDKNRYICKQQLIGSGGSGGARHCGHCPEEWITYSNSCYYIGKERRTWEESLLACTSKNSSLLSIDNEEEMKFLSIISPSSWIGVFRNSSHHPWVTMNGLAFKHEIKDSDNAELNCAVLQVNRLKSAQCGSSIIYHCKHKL
Procedure: (§1) Binding and specificity of Fab or IgG to single chain CD94/NKG2A-Fc or single chain CD94/NKG2C-Fc were analyzed through indirect ELISA. Briefly, Fc-fused proteins were coated on a 96 well plate (Corning, 3690) at 200 ng/well (50 μL volume) in PBS for 2 hours at room temperature. Blocking was carried out with 3% BSA in PBS for overnight at 4° C. Next day, various concentration of Fab or IgG was applied to antigen coated plates and incubated for 1 hour at 25° C. After three times washing, anti-FLAG mouse antibody (M2 clone)-HRP conjugated (Sigma, A8592, 1:3000 dilution) or anti-human kappa goat antibody-HRP conjugated (Invitrogen, A18853, 1:3000 dilution) was applied to detect binding of either Fab or IgG. Same volume of TMB (Thermo, PI34028) was added as a substrate, and then enzymatic reactions were stopped by adding of 2N […].

[2] = target: T2, single chain CD94/NKG2C-Fc (human); assay: indirect ELISA, coated CD94/NKG2C-Fc
T2 construct: also called CD94/NKG2C polypeptide; single chain CD94/NKG2C polypeptide; not shown: Fc
T2 sequence (chain, as listed by the source): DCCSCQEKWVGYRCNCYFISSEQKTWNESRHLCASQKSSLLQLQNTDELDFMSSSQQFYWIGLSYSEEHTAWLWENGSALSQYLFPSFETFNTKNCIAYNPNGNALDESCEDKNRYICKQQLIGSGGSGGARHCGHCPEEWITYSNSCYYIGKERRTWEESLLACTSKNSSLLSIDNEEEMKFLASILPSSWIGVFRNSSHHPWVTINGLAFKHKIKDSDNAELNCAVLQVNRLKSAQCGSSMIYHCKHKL
Procedure: as §1

[3] = target: T1, single chain CD94/NKG2A-Fc …; assay: BLItz biolayer interferometry
[4] = target: T3, CD94/NKG2A on the surface of primary human NK cells (human, UniProt Q13241 1-179; P26715 1-233); assay: flow cytometry on primary NK cells, 10 nM antibody
T3 construct: Endogenous receptor on primary NK cells enriched from normal human PBMCs; also called intact NKG2A receptor on the surface of NK cell; cell surface NKG2A
T3 sequence (Q13241 whole entry, chain 1 of 2): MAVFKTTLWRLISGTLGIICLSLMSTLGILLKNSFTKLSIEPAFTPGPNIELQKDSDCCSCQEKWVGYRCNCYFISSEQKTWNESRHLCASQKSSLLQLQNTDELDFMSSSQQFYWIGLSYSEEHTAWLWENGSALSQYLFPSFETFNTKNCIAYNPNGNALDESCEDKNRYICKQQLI
T3 sequence (P26715 whole entry, chain 2 of 2): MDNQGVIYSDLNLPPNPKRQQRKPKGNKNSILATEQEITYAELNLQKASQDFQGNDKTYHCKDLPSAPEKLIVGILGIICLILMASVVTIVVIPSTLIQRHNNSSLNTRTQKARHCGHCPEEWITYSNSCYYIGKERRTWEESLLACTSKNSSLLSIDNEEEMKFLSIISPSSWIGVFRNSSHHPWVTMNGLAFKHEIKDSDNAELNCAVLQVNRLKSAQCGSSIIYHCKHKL
Procedure: For investigation of NKG2A expression level of NK cells, enriched NK cells were activated with 50 IU/mL of hIL-2 and treated with the indicated antibodies (100 nM) for 24 hours at 37° C. After incubation with antibodies, cells were washed with cold PBS, and then the cell surface NKG2A was detected using a FITC- or PE-conjugated anti-human CD159a (NKG2A) antibody.

| Binder | EC50 [1] | binding result [2] | Kd [3] | binding result [4] |
| --- | --- | --- | --- | --- |
| B1 | 2.7 nM | no binding |  |  |
| B2 | 0.6 nM | no binding |  |  |
| B3 |  |  | 1.1 nM | binds |
